Measured values as given in the supplement of paper PMC10724198.
± gives the standard deviation of the averaged measurements.

System: Saccharomyces cerevisiae
Test: protein stability index of tFT-peptide fusion (C-terminal peptide) (PSI (0-1 scale)); higher = more stable (slower turnover)
Conditions: genetic background: wild type; temperature: 30 C
Procedure: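 MPS profiling in S. cerevisiae of the yeast C-terminome library: the last 12 aa of each annotated ORF are fused to the C-terminus of a sfGFP-mCherry timer, after a GGGS linker. Cells are FACS-sorted into 8 mCherry/sfGFP bins and deep-sequenced. PSI runs from 0 (unstable) to 1 (stable); wild type and das1Δ backgrounds, two technical replicates each.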

**Q.** AFKGHDNSDDKA [RIB2 C-terminal 12 aa] was tested. Which protein stability index did it give?
**A.** 0.666 ± 0.025

**Q.** Which protein stability index does the source give for AFKRKKQELGVN [QDR2 C-terminal 12 aa] here?
**A.** 0.697 ± 0.089

**Q.** For AFSSNDLLTVHL [BRE1 C-terminal 12 aa], which protein stability index is on record?
**A.** 0.673 ± 0.011

**Q.** Which protein stability index does the source give for AFTTYRAFVEPN [PMI40 C-terminal 12 aa] here?
**A.** 0.677 ± 0.0095

**Q.** AGSRRLDFRFYH [YOL162W C-terminal 12 aa] was tested. Which protein stability index did it give?
**A.** 0.6607 ± 0.0057

**Q.** Which protein stability index does the source give for AHYNNGLQWFSD [EMC4 C-terminal 12 aa] here?
**A.** 0.728 ± 0.014

**Q.** AIGNCVQDEEKL [AVL9 C-terminal 12 aa] was tested. Which protein stability index did it give?
**A.** 0.679 ± 0.035

**Q.** AIMAVACNVIFS [AGA1 C-terminal 12 aa] was tested. Which protein stability index did it give?
**A.** 0.315 ± 0.005

**Q.** How did the protein stability index turn out when AIWKHGIVEEKI [TMA19 C-terminal 12 aa] was run?
**A.** 0.694 ± 0.026

**Q.** Which protein stability index does the source give for AKLFKEIFAYKV [COQ8 C-terminal 12 aa] here?
**A.** 0.66 ± 0.019

**Q.** For AKSLIHLFTSNQ [NRM1 C-terminal 12 aa], which protein stability index is on record?
**A.** 0.7334 ± 0.0027

**Q.** “AKWSISHKSNTG [YIL066W-A C-terminal 12 aa]” was tested. Which protein stability index did it give?
**A.** 0.69 ± 0.037

**Q.** How did the protein stability index turn out when ALGEHYNSLHDS [OTU2 C-terminal 12 aa] was run?
**A.** 0.653 ± 0.0071

**Q.** ALKKEYEAKKKA [COA3 C-terminal 12 aa] was tested. Which protein stability index did it give?
**A.** 0.664 ± 0.0072

**Q.** With ALPTYTMEYLDI [UTP8 C-terminal 12 aa] as the sequence, how does the protein stability index read?
**A.** 0.698 ± 0.035

**Q.** ALQVLEERMVNP [YOL107W C-terminal 12 aa] was tested. Which protein stability index did it give?
**A.** 0.699 ± 0.0077

**Q.** For AMDHKFFKTKFE [CKA2 C-terminal 12 aa], which protein stability index is on record?
**A.** 0.708 ± 0.025

**Q.** With AMMKAEENFVKS [MAG1 C-terminal 12 aa] as the sequence, how does the protein stability index read?
**A.** 0.6762 ± 0.00091

**Q.** With ANEALQHILDDS [INO2 C-terminal 12 aa] as the sequence, how does the protein stability index read?
**A.** 0.69 ± 0.024

**Q.** For AQLVSLVRNQKH [YLR198C C-terminal 12 aa], which protein stability index is on record?
**A.** 0.6998 ± 0.005

**Q.** How did the protein stability index turn out when ARAAAEYDCTVA [ATR1 C-terminal 12 aa] was run?
**A.** 0.7 ± 0.036

**Q.** Which protein stability index does the source give for ARAAEERMKKKY [VMS1 C-terminal 12 aa] here?
**A.** 0.663 ± 0.038

**Q.** With AREAVVRAGFDS [YIH1 C-terminal 12 aa] as the sequence, how does the protein stability index read?
**A.** 0.745 ± 0.071

**Q.** Which protein stability index does the source give for ASGEYESDGSDD [RRN3 C-terminal 12 aa] here?
**A.** 0.709 ± 0.063

**Q.** How did the protein stability index turn out when ASNGSIFQFSSP [REC104 C-terminal 12 aa] was run?
**A.** 0.718 ± 0.01

**Q.** For ASSSDRPTVAAT [RRT5 C-terminal 12 aa], which protein stability index is on record?
**A.** 0.681 ± 0.021

**Q.** How did the protein stability index turn out when ATICSVAFVKQN [EFM4 C-terminal 12 aa] was run?
**A.** 0.224 ± 0.011

**Q.** With ATPPYQVFKQQL [FMN1 C-terminal 12 aa] as the sequence, how does the protein stability index read?
**A.** 0.668 ± 0.028

**Q.** For ATRRHLAHAPKL [DPI8 C-terminal 12 aa], which protein stability index is on record?
**A.** 0.782 ± 0.064

**Q.** How did the protein stability index turn out when AVETLKKGGFLP [YDL177C C-terminal 12 aa] was run?
**A.** 0.685 ± 0.0071

**Q.** For AVFYIFETLSAL [ORT1 C-terminal 12 aa], which protein stability index is on record?
**A.** 0.654 ± 0.0084

**Q.** Which protein stability index does the source give for “AVGIQSSESLLM [YMR175W-A C-terminal 12 aa]” here?
**A.** 0.715 ± 0.031

**Q.** For AVKYLYRQIVRN [EFM2 C-terminal 12 aa], which protein stability index is on record?
**A.** 0.6213 ± 0.0041

**Q.** For AVNGSDGQHCQI [AVT2 C-terminal 12 aa], which protein stability index is on record?
**A.** 0.6543 ± 0.0021

**Q.** AYQITKRGIETA [RAD57 C-terminal 12 aa] was tested. Which protein stability index did it give?
**A.** 0.6951 ± 0.004

**Q.** CAVDAIFYWLLM [GMC1 C-terminal 12 aa] was tested. Which protein stability index did it give?
**A.** 0.486 ± 0.026

**Q.** For CAVGGPEKLKFY [BUD3 C-terminal 12 aa], which protein stability index is on record?
**A.** 0.758 ± 0.018

**Q.** Which protein stability index does the source give for “CCGSVLLWCLVV [YLR437C-A C-terminal 12 aa]” here?
**A.** 0.27 ± 0.0046

**Q.** CDLVKNSNGLST [YOR200W C-terminal 12 aa] was tested. Which protein stability index did it give?
**A.** 0.685 ± 0.039

**Q.** Which protein stability index does the source give for CENANYRGAEVP [YIL175W C-terminal 12 aa] here?
**A.** 0.689 ± 0.015

**Q.** How did the protein stability index turn out when CFSCFHLSTHTN [YDR157W C-terminal 12 aa] was run?
**A.** 0.6252 ± 0.005

**Q.** How did the protein stability index turn out when CFWRMICSEPKL [YAR064W C-terminal 12 aa] was run?
**A.** 0.623 ± 0.052

**Q.** With CGGRPQYGVMFA [YDR249C C-terminal 12 aa] as the sequence, how does the protein stability index read?
**A.** 0.702 ± 0.023

**Q.** For “CINCSRFIHNIN [YMR230W-A C-terminal 12 aa]”, which protein stability index is on record?
**A.** 0.304 ± 0.013

**Q.** For “CNLFSERKPVNH [YGL188C-A C-terminal 12 aa]”, which protein stability index is on record?
**A.** 0.691 ± 0.011

**Q.** For CSGIPSGSGASC [PGU1 C-terminal 12 aa], which protein stability index is on record?
**A.** 0.673 ± 0.076

**Q.** Which protein stability index does the source give for CWMLWLQDRPVC [YBL112C C-terminal 12 aa] here?
**A.** 0.625 ± 0.02

**Q.** CYQDYNHDHRSH [OSW2 C-terminal 12 aa] was tested. Which protein stability index did it give?
**A.** 0.6835 ± 0.0018

**Q.** How did the protein stability index turn out when DAKNANEKNKTY [PIS1 C-terminal 12 aa] was run?
**A.** 0.42 ± 0.033

**Q.** Which protein stability index does the source give for DATLYLGRFLPH [PEF1 C-terminal 12 aa] here?
**A.** 0.667 ± 0.01

**Q.** For DDCLIELPNGNI [RRN9 C-terminal 12 aa], which protein stability index is on record?
**A.** 0.703 ± 0.041

**Q.** With DDGIATYNNTQG [KNS1 C-terminal 12 aa] as the sequence, how does the protein stability index read?
**A.** 0.72 ± 0.027

**Q.** For DDILSHGFEPLA [HTC1 C-terminal 12 aa], which protein stability index is on record?
**A.** 0.706 ± 0.027

**Q.** How did the protein stability index turn out when DDKFRRSYDVKK [ERG13 C-terminal 12 aa] was run?
**A.** 0.753 ± 0.12

**Q.** How did the protein stability index turn out when DDTVQFMRRALE [EAF5 C-terminal 12 aa] was run?
**A.** 0.719 ± 0.044

**Q.** How did the protein stability index turn out when DEFWTDLFMNDI [WAR1 C-terminal 12 aa] was run?
**A.** 0.757 ± 0.036

**Q.** How did the protein stability index turn out when DEQKHNENENSR [RPO21 C-terminal 12 aa] was run?
**A.** 0.708 ± 0.021

**Q.** For DESVDMNVGISY [YCL046W C-terminal 12 aa], which protein stability index is on record?
**A.** 0.718 ± 0.035

**Q.** How did the protein stability index turn out when DETIKLKDKKIK [MRPL6 C-terminal 12 aa] was run?
**A.** 0.655 ± 0.028

**Q.** Which protein stability index does the source give for DFFREVKYGKKQ [ODC1 C-terminal 12 aa] here?
**A.** 0.72329 ± 0.00028

**Q.** Which protein stability index does the source give for “DFFYFFQGPFVL [YOR072W-B C-terminal 12 aa]” here?
**A.** 0.731 ± 0.044

**Q.** How did the protein stability index turn out when DGGWGNRGRSNY [DBP2 C-terminal 12 aa] was run?
**A.** 0.667 ± 0.05

**Q.** With DGKIKIWKISRN [GID7 C-terminal 12 aa] as the sequence, how does the protein stability index read?
**A.** 0.711 ± 0.086

**Q.** With DGLLKNVWSYSR [RPS21A C-terminal 12 aa] as the sequence, how does the protein stability index read?
**A.** 0.7137 ± 0.0025

**Q.** Which protein stability index does the source give for DGPKFTFKRRKG [XRS2 C-terminal 12 aa] here?
**A.** 0.778 ± 0.041

**Q.** For DGWIPTRTDDVK [TAD1 C-terminal 12 aa], which protein stability index is on record?
**A.** 0.707 ± 0.094

**Q.** For DGYPKDNEDIDP [MAL13 C-terminal 12 aa], which protein stability index is on record?
**A.** 0.708 ± 0.043

**Q.** How did the protein stability index turn out when DIEVDHTKSTDP [DPB3 C-terminal 12 aa] was run?
**A.** 0.676 ± 0.018

**Q.** For DILSQIIESCWV [YNL174W C-terminal 12 aa], which protein stability index is on record?
**A.** 0.705 ± 0.083

**Q.** Which protein stability index does the source give for DIMVFEISNCRV [HIS1 C-terminal 12 aa] here?
**A.** 0.73 ± 0.052

**Q.** How did the protein stability index turn out when DIPRSNVYGSLI [SCY1 C-terminal 12 aa] was run?
**A.** 0.672 ± 0.044

**Q.** With DITYDDYKSIDF [SUT1 C-terminal 12 aa] as the sequence, how does the protein stability index read?
**A.** 0.703 ± 0.095

**Q.** For DLEMEVIAVEKN [MMF1 C-terminal 12 aa], which protein stability index is on record?
**A.** 0.674 ± 0.034

**Q.** For DLKKLIWNEIFS [FUS3 C-terminal 12 aa], which protein stability index is on record?
**A.** 0.684 ± 0.027

**Q.** For DLQSLIESNGFA [PFK27 C-terminal 12 aa], which protein stability index is on record?
**A.** 0.689 ± 0.026

**Q.** With DMLYDELMKTME [KSS1 C-terminal 12 aa] as the sequence, how does the protein stability index read?
**A.** 0.666 ± 0.022

**Q.** For DNNDLAKSSSQK [CMI7 C-terminal 12 aa], which protein stability index is on record?
**A.** 0.66 ± 0.048

**Q.** Which protein stability index does the source give for DNNTVTANPTAR [YJR012C C-terminal 12 aa] here?
**A.** 0.6523 ± 0.003

**Q.** For DRCKEAVDHLMS [ISM1 C-terminal 12 aa], which protein stability index is on record?
**A.** 0.70544 ± 0.00054

**Q.** With DRIAAQTLEEDE [RPS19A C-terminal 12 aa] as the sequence, how does the protein stability index read?
**A.** 0.693 ± 0.05

**Q.** How did the protein stability index turn out when DSDLFFVAEAIS [YIL032C C-terminal 12 aa] was run?
**A.** 0.703 ± 0.022

**Q.** How did the protein stability index turn out when DSFVEFWGRILY [PUL4 C-terminal 12 aa] was run?
**A.** 0.6623 ± 0.0034
